Measurements published in paper PMC9943657, “Structural basis for topological regulation of Tn3 resolvase”.

Assays:
[1] = target: T1, Tn3 resolvase (crystallized) (Tn3 transposon, UniProt P0ADI2 1-185); experiment: X-ray crystallography; Form II, ~4.0/4.5/4.0 A, two dimer-DNA complexes per asymmetric unit; Crystal DNA annealed at 1 mM in TE (Tris-HCl pH 8.0, EDTA), 50 mM NaCl; footprinting: synapses crosslinked with glutaraldehyde, DNase I + 10 mM MgCl2; binding buffers and temperature not in material; details: protein: recombinant; chain copies: 2; label: none for native; 25 bp, 2-nt 5' overhang at each end
[2] = target: T1, Tn3 resolvase (crystallized); experiment: X-ray crystallography; Form I, ~3.4 A, one dimer-DNA complex per asymmetric unit; Crystal DNA annealed at 1 mM in TE (Tris-HCl pH 8.0, EDTA), 50 mM NaCl; footprinting: synapses crosslinked with glutaraldehyde, DNase I + 10 mM MgCl2; binding buffers and temperature not in material; details: protein: recombinant; chain copies: 2; label: none for native; 29 bp, 1-nt 5' overhang at each end

T1 sequence (P0ADI2 whole entry): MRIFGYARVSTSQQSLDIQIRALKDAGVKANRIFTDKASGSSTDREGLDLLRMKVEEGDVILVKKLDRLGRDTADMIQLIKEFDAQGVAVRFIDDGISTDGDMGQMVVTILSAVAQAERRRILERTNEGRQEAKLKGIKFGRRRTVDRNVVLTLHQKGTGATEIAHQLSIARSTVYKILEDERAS

B1: Tn3 res site III, Form II duplex (dsDNA)
DNA 1: ATTGTCTGATATTCGATTTAAGGTACA
DNA 2: ATTGTACCTTAAATCGAATATCAGACA
binding result [1]: binds

B2: Tn3 res site III, Form I duplex (dsDNA)
DNA 1: TCGTGTCTGATATTCGATTTAAGGTACATT
DNA 2: AAATGTACCTTAAATCGAATATCAGACACG
binding result [2]: binds
